Laboratory results reported in IntAct's records for PubMed 15070733.

What was measured:
fbw1b_human FBXW11 = fbw1b_human FBXW11 (UniProt Q9UKB1)
fbw1a_human BTRC = fbw1a_human BTRC (UniProt Q9Y297)
fbw1a_human BTRC, sequence (Q9Y297 whole entry): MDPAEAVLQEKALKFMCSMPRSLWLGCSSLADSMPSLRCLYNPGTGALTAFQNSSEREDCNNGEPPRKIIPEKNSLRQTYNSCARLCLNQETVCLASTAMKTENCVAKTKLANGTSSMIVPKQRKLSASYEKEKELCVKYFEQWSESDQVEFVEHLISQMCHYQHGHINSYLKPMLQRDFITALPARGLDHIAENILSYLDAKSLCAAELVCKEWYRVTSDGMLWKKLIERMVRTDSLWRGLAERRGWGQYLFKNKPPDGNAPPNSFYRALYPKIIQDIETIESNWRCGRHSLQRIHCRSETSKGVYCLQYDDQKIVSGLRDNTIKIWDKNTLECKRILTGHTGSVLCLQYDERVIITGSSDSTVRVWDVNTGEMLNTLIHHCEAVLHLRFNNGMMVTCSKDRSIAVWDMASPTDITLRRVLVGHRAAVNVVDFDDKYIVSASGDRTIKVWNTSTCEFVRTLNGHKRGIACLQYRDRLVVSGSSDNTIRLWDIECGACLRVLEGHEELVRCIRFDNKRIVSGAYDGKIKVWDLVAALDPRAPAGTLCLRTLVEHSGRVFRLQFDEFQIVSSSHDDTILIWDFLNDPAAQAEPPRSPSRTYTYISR

fbw1b_human FBXW11, sequence (Q9UKB1 whole entry): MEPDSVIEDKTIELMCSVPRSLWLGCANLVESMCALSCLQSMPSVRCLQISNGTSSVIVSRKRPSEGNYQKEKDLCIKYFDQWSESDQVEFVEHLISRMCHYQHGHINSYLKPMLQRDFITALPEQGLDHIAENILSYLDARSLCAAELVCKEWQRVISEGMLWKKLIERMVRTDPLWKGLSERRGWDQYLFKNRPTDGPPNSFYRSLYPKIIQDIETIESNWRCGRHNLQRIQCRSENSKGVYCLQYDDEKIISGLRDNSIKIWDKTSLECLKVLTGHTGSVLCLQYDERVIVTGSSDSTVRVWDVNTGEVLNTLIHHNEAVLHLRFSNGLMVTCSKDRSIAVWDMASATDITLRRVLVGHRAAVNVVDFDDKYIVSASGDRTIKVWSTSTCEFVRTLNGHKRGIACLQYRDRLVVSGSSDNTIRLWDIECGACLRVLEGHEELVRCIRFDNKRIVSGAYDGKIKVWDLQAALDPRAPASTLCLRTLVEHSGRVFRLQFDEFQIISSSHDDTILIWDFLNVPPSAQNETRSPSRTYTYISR

Substance	effect of a mutation on the interaction (fbw1b_human FBXW11)	effect of a mutation on the interaction (fbw1a_human BTRC)
Wee1-like protein kinase (Homo sapiens), P30291 D52A;S123A	decreasing interaction	–
Wee1-like protein kinase (Homo sapiens), P30291 E116A;E117A	–	decreasing interaction

Further lines, results first:

effect of a mutation on the interaction (fbw1b_human FBXW11)	effect of a mutation on the interaction (fbw1a_human BTRC)	Substance
decreasing interaction	–	Wee1-like protein kinase (Homo sapiens), P30291 S53A;S123A
–	decreasing interaction	Wee1-like protein kinase (Homo sapiens), P30291 S121A
–	decreasing interaction	Wee1-like protein kinase (Homo sapiens), P30291 S123A
